Source: patent US20160177307

Assays:
Assay in all cases: filter
[1] = tested on: T1, VEGF-121 (Homo sapiens), P15692-9
T1 sequence: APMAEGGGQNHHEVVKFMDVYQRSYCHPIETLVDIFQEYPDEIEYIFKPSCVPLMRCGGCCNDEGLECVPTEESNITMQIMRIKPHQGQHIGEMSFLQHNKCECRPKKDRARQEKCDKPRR

[2] = tested on: T2, VEGF-164 (Rattus norvegicus), P16612-2; conditions: P=Nap-dU
T2 sequence: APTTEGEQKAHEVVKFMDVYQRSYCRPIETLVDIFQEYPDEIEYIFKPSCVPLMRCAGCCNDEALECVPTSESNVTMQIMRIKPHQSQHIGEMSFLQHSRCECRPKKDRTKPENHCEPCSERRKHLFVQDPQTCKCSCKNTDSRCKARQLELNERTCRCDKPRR

[3] = tested on: T3, VEGF-165 (Homo sapiens), P15692-4
T3 sequence: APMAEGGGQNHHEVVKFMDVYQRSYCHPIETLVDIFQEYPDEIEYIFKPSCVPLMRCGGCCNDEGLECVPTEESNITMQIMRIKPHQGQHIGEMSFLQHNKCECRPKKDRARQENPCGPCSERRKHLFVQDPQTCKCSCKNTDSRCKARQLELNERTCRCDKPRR

[4] = molecular target: PDGF-BB (platelet-derived growth factor BB) (Homo sapiens) (UniProt P01127)
PDGF-AB = PDGF-AB (UniProt P04085+P01127)
[5] = Nap-dU, Bn-dU, MBn-dU, 2'-OMe, C3, 2 Heg between parts
[6] = Nap-dU, Bn-dU, MBn-dU, 2'-OMe, C3, 3 Heg between parts
[7] = Nap-dU, Bn-dU, MBn-dU, 2'-OMe, C3, 4 Heg between parts
[8] = Nap-dU, Bn-dU, MBn-dU, 2'-OMe, C3, 5 Heg between parts
[9] = Nap-dU, Bn-dU, MBn-dU, 2'-OMe, C3, 6 Heg between parts
[10] = NapdU at P, C3 spacer 15,18, specificity control
[11] = VEGF-PDGF heterodimer, no Heg linker, NapdU, BndU
[12] = BndU at 1,2,7,8,16,17,18,20, Heg at 5, 2'-OMe A3,A11,A21,G24
[13] = Bn-dU, Heg linker, 2'-OMe A3, A11, A19, A21, G24
[14] = Bn-dU, MBn-dU, Nap-dU, 2'-OMe, C3, 2 Heg between parts
[15] = Bn-dU, MBn-dU, Nap-dU, 2'-OMe, C3, 4 Heg between parts
[16] = Bn-dU, MBn-dU, Nap-dU, 2'-OMe, C3, 5 Heg between parts
[17] = Bn-dU, MBn-dU, Nap-dU, 2'-OMe, C3, 6 Heg between parts

Sequence of PDGF-AB (P01127 82-190, chain 2 of 2, other chains not shown): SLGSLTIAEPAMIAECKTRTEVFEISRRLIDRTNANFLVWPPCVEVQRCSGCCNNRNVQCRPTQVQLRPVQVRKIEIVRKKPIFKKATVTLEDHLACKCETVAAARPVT
Sequence of PDGF-BB (platelet-derived growth factor BB) (Homo sapiens) (P01127 82-190): as the sequence (P01127 82-190, chain 2 of 2, other chains not shown) above

AATCAGCCGTTCAAGTGCTTGTAGGATTTAAATGGA [4867-31_39]
Kd ([1]; P=Nap-dU): 0.62 nM | Kd [2]: 0.09 nM | Kd ([3]; P=Nap-dU): 0.2 nM

AATCAGCCGTTCAAGTGCTTGTAGGATTTAAATGGAA [4867-31_33]
Kd ([1]; P=Nap-dU): 0.55 nM | Kd [2]: 0.04 nM | Kd ([3]; P=Nap-dU): 0.11 nM

AATCAGCCGTTCAAGTGCTTGTAGGATTTAAATGGAAT [4867-31_27]
Kd ([1]; P=Nap-dU): 0.59 nM | Kd [2]: 0.07 nM | Kd ([3]; P=Nap-dU): 0.11 nM

AGCCGTTCAAGTGCTTGTAGGATTTAAATG [4867-31_52]
Kd ([1]; NapdU at P): 2.8 nM | Kd [2]: 0.58 nM | Kd ([3]; NapdU at P): 0.17 nM

AGCCGTTCAAGTGCTTGTAGGATTTAAATGGAA [4867-31_37]
Kd ([1]; P=Nap-dU): 0.21 nM | Kd [2]: 0.04 nM | Kd ([3]; P=Nap-dU): 0.092 nM

AGCCGTTCAAGTGCTTGTAGGATTTAAATGGAAT [4867-31_31]
Kd ([1]; P=Nap-dU): 1 nM | Kd [2]: 0.12 nM | Kd ([3]; P=Nap-dU): 0.17 nM

ATCAGCCGTTCAAGTGCTTGTAGGATTTAAATGGA [4867-31_40]
Kd ([1]; P=Nap-dU): 0.7 nM | Kd [2]: 0.1 nM | Kd ([3]; P=Nap-dU): 0.14 nM

ATCAGCCGTTCAAGTGCTTGTAGGATTTAAATGGAA [4867-31_34]
Kd ([1]; P=Nap-dU): 0.47 nM | Kd [2]: 0.05 nM | Kd ([3]; P=Nap-dU): 0.35 nM

ATCAGCCGTTCAAGTGCTTGTAGGATTTAAATGGAAT [4867-31_28]
Kd ([1]; P=Nap-dU): 0.97 nM | Kd [2]: 0.07 nM | Kd ([3]; P=Nap-dU): 0.1 nM

CAATCAGCCGTTCAAGTGCTTGTAGGATTTAAATGGA [4867-31_38]
Kd ([1]; P=Nap-dU): 0.81 nM | Kd [2]: 0.09 nM | Kd ([3]; P=Nap-dU): 0.17 nM

CAATCAGCCGTTCAAGTGCTTGTAGGATTTAAATGGAA [4867-31_32]
Kd ([1]; P=Nap-dU): 0.51 nM | Kd [2]: 0.06 nM | Kd ([3]; P=Nap-dU): 0.1 nM

CAATCAGCCGTTCAAGTGCTTGTAGGATTTAAATGGAAT [4867-31_26]
Kd ([1]; P=Nap-dU): 0.49 nM | Kd [2]: 0.07 nM | Kd ([3]; P=Nap-dU, SB18T, 37 C): 0.075 nM

CAGCCGTTCAAGTGCTTGTAGGATTTAA [4867-31_48]
Kd [2]: 142 nM

CAGCCGTTCAAGTGCTTGTAGGATTTAAATG [4867-31_45]
Kd ([1]; NapdU at P): 3.3 nM | Kd [2]: 4.5 nM | Kd ([3]; NapdU at P): 1.1 nM

CAGCCGTTCAAGTGCTTGTAGGATTTAAATGG [4867-31_44]
Kd ([1]; NapdU at P): 0.14 nM | Kd [2]: 0.38 nM | Kd ([3]; NapdU at P): 0.13 nM

CAGCCGTTCAAGTGCTTGTAGGATTTAAATGGAA [4867-31_36]
Kd ([1]; P=Nap-dU): 0.39 nM | Kd [2]: 0.06 nM | Kd ([3]; P=Nap-dU): 0.11 nM

CAGCCGTTCAAGTGCTTGTAGGATTTAAATGGAAT [4867-31_30]
Kd ([1]; P=Nap-dU): 1.4 nM | Kd [2]: 0.15 nM | Kd ([3]; P=Nap-dU): 0.2 nM

CCGTTCAAGTGCTTGTAGGATTTAAATGGA [4867-31_59]
Kd ([1]; NapdU at P): 0.14 nM | Kd [2]: 0.2 nM | Kd ([3]; NapdU at P): 0.16 nM

CCGTTCAAGTGCTTGTAGGATTTAAATGGTTACGTTACCGCGTTTATAGCG [4149-8_409]
Kd [1, 5]: 0.026 nM | Kd [3, 5]: 0.029 nM | Kd [4, 5]: 0.6 nM

CCGTTCAAGTGCTTGTAGGATTTAAATGGTTACGTTACCGCGTTTATAGCG [4149-8_410]
Kd [1, 6]: 0.026 nM | Kd [3, 6]: 0.033 nM | Kd [4, 6]: 0.02 nM

CCGTTCAAGTGCTTGTAGGATTTAAATGGTTACGTTACCGCGTTTATAGCG [4149-8_411]
Kd [1, 7]: 0.02 nM | Kd [3, 7]: 0.045 nM | Kd [4, 7]: 0.0072 nM

CCGTTCAAGTGCTTGTAGGATTTAAATGGTTACGTTACCGCGTTTATAGCG [4149-8_412]
Kd [1, 8]: 0.02 nM | Kd [3, 8]: 0.045 nM | Kd [4, 8]: 0.0086 nM

CCGTTCAAGTGCTTGTAGGATTTAAATGGTTACGTTACCGCGTTTATAGCG [4149-8_413]
Kd [1, 9]: 0.04 nM | Kd [3, 9]: 0.063 nM | Kd [4, 9]: 0.01 nM

CCGTTCAAGTGCTTTAGATTTAAATGG [4867-31_183]
Kd ([1]; NapdU at P, C3 spacer 15,18): 0.091 nM | Kd ([3]; Nap-dU, C3 spacer at 15 and 18, VEGF): 0.138 nM | Kd (PDGF-AB; [10]): 14.5 nM | Kd [4, 10]: 195 nM

CCGTTCAAGTGCTTTAGATTTAAATGGTTACGTTACACGCGTTTATAGC [4149-8_313]
Kd [1, 11]: 4.31 nM | Kd ([3]; Nap-dU (VEGF part), Bn-dU (PDGF part), C3, Heg, 2'-OMe, VEGF): 0.258 nM | Kd (PDGF-AB; [11]): 0.165 nM | Kd [4, 11]: 0.0933 nM

CCGTTCAAGTGCTTTAGATTTAAATGGTTACGTTACACGCGTTTATAGC [4149-8_314]
Kd ([1]; VEGF-1Heg-PDGF, NapdU, BndU): 1.55 nM | Kd ([3]; Nap-dU, Bn-dU, C3, 1 Heg linker, 2'-OMe, VEGF): 0.143 nM | Kd (PDGF-AB; VEGF-1Heg-PDGF, NapdU, BndU): 0.111 nM | Kd ([4]; VEGF-1Heg-PDGF, NapdU, BndU): 0.136 nM

CGTTCAAGTGCTTGTAGGATTTAAATGGA [4867-31_60]
Kd ([1]; NapdU at P): 2.2 nM | Kd [2]: 1.4 nM | Kd ([3]; NapdU at P): 0.61 nM

GCCGTTCAAGTGCTTGTAGGATTTAAATGGA [4867-31_58]
Kd ([1]; NapdU at P): 0.15 nM | Kd [2]: 0.21 nM | Kd ([3]; NapdU at P): 0.1 nM

GTTCAAGTGCTTGTAGGATTTAAATGGA [4867-31_61]
Kd ([1]; NapdU at P): 33 nM | Kd [2]: 13 nM | Kd ([3]; NapdU at P): 2.9 nM

TCAATCAGCCGTTCAAGTGCTTGTAGGATTTAAAT [4867-31_25]
Kd ([1]; NapdU at P): 70 nM | Kd [2]: 16 nM | Kd ([3]; NapdU at P): 26 nM

TCAATCAGCCGTTCAAGTGCTTGTAGGATTTAAATG [4867-31_24]
Kd ([1]; NapdU at P): 36 nM | Kd [2]: 4.2 nM | Kd ([3]; NapdU at P): 2.8 nM

TCAATCAGCCGTTCAAGTGCTTGTAGGATTTAAATGG [4867-31_23]
Kd ([1]; NapdU at P): 1.3 nM | Kd [2]: 0.66 nM | Kd ([3]; NapdU at P): 0.3 nM

TCAATCAGCCGTTCAAGTGCTTGTAGGATTTAAATGGA [4867-31_22]
Kd ([1]; NapdU at P): 0.82 nM | Kd [2]: 0.54 nM | Kd ([3]; NapdU at P): 0.26 nM

TCAGCCGTTCAAGTGCTTGTAGGATTTAAATGGA [4867-31_41]
Kd ([1]; P=Nap-dU): 0.63 nM | Kd [2]: 0.08 nM | Kd ([3]; P=Nap-dU): 0.13 nM

TCAGCCGTTCAAGTGCTTGTAGGATTTAAATGGAA [4867-31_35]
Kd [2]: 0.05 nM | Kd ([3]; P=Nap-dU): 0.11 nM

TCAGCCGTTCAAGTGCTTGTAGGATTTAAATGGAAT [4867-31_29]
Kd ([1]; P=Nap-dU): 0.96 nM | Kd [2]: 0.08 nM | Kd ([3]; P=Nap-dU): 0.13 nM

TTACGACTACGTTACACGCGTTTATAGC [4149-8_39]
Kd (PDGF-AB; BndU at 1,2,8,12,13,21,22,23,25, rest DNA): 0.0476 nM | Kd ([4]; BndU at 1,2,8,12,13,21,22,23,25, rest DNA, SB18T, 37 C, Table 18 gives 87.5 pM): 0.11 nM

TTACGTTACACGCGTTTATAGCG [4149-8_130]
Kd (PDGF-AB; [12]): 0.141 nM | Kd [4, 12]: 0.0759 nM

TTACGTTACACGCGTTTATAGCG [4149-8_273]
Kd (PDGF-AB; [13]): 0.189 nM | Kd [4, 13]: 0.0614 nM

TTACGTTACCGCGTTTATAGCGCCGTTCAAGTGCTTGTAGGATTTAAATGG [4149-8_414]
Kd [1, 14]: 0.023 nM | Kd [3, 14]: 0.051 nM | Kd [4, 14]: 0.01 nM

TTACGTTACCGCGTTTATAGCGCCGTTCAAGTGCTTGTAGGATTTAAATGG [4149-8_415]
Kd [1, 15]: 0.04 nM | Kd [3, 15]: 0.03 nM | Kd [4, 15]: 0.0081 nM

TTACGTTACCGCGTTTATAGCGCCGTTCAAGTGCTTGTAGGATTTAAATGG [4149-8_416]
Kd [1, 16]: 0.041 nM | Kd [3, 16]: 0.03 nM | Kd [4, 16]: 0.0089 nM

TTACGTTACCGCGTTTATAGCGCCGTTCAAGTGCTTGTAGGATTTAAATGG [4149-8_417]
Kd [1, 17]: 0.043 nM | Kd [3, 17]: 0.065 nM | Kd [4, 17]: 0.011 nM
